{"source": "patent US10704056B2", "about": "“Constitutively active ABA receptor mutants” (The Regents of the University of California, priority 2011, dated 2020)", "key": {"[1]": {"test_system": "HAB1", "assay": "In vitro PP2C phosphatase (pNPP) receptor activation assay with HAB1", "format": "biochemical, Arabidopsis", "conditions": "600 nM GST-HAB1, 0-4800 nM receptor, no ABA", "description": "Recombinant receptor proteins were produced as follows: Coding sequences were cloned into pET28 yielding 6×HIS (SEQ ID NO:173) fusions proteins and transformed into E. coli expression strain BL21. […]. Cells were stored at −80° C. before purification. After thawing, cells were sonicated on ice five times for 30 sec with 30 sec resting intervals. A cleared lysate was obtained after centrifugation at 12,000×g for 10 min and applied to 1 ml of Ni-NTA column (Qiagen) and washed with 20 column volumes of Buffer A containing 30 mM imidazole. Bound protein was eluted with 10 ml of Buffer A with 250 mM imidazole. The elutate was dialyzed against TBS. The purified recombinant proteins were then used together with recombinant phosphatases in receptor assays. In these assays, receptor activity is indicated by inhibition of phosphatase activity, as inferred from initial reaction velocities for GST-HAB1 mediated hydrolysis of the synthetic phosphatase substrate pNPP. Reactions contained 600 nM GST-HAB1 and either 0, 600, 1200, 2400 or 4800 nM 6×His-PYR1 or variants in a reaction buffer consisting of 33 mM Tris-OAc, pH 7.9, 66 mM KOAc, 0.1% BSA, 25 mM Mn(OAc)2, 50 mM pNPP. To infer the level of receptor activation with respect to fully activated wild type receptor, control reactions were also conducted using saturating levels of (+)-ABA (10 μM), and 600 nM wild type PYR1 and HAB1. Immediately after mixing proteins and substrates, reactions were monitored for hydrolysis of pNPP at A405 at ˜10 second intervals over 20 minutes using a Wallac plate reader. Reaction progressions were plotted, initial velocities calculated and converted to specific activities using a standard curve for 4-nitrophenol made in the same buffer system volumes/plate reader used for enzymatic reaction measurements. The values shown are expressed as %-control phosphatase activity levels as measured in the absence of receptor protein. The average specific activity level of GST-HAB1 utilized in our experiments was 4000 μmol/min/mg, when assayed on the phosphatase substrate pNPP in the absence of PYR1 or other receptors, as described using the methods above.\nFull length ABI1 and ABI2 were cloned into a modified pSUMO vector (LifeSensors Inc, USA) vector yielding 6×His-SUMO fusion proteins; GST-HAB1 was expressed and purified as previously described (Park et al., 2009). Mutant receptors were cloned into pET28 yielding 6×His-fusion proteins. […]. The cultures were pre-incubated 2 hours at 30° C. and, for PP2C expression, media was supplemented with 4 mM MnCl2 one hour after inoculation. After pre-incubation, IPTG was added (1 mM) and cells were induced at 15° C. for 16 hours, after which they were collected by centrifugation, resuspended in 5 ml Buffer A (50 mM NaH2PO4, 300 mM NaCl) +10 mM imidazole, pH 8.0 and stored at −80° C. For purification, cells were thawed, sonicated on ice (60 seconds) and a cleared lysate was then applied a 1 ml-bed volume column of Ni-NTA (Qiagen, USA), washed with 20 column volumes of Buffer A+30 mM imidazole and bound protein eluted with 1 ml of Buffer A+250 mM imidazole. For receptors, the elutate was dialyzed against TBS and for PP2Cs, fusion proteins were desalted by passage over a Sephadex G50 column.\nThe purified receptors and phosphatases were then used in receptor assays where receptor activation is indicated by inhibition of phosphatase activity, as inferred from initial reaction velocities for PP2C-mediated hydrolysis of the synthetic phosphatase substrate pNPP in reactions containing 600 nM PP2C and either 0, 600, 1200, 2400 or 4800 nM receptor. The receptor assay buffer consisted of 33 mM Tris-OAc, pH 7.9, 66 mM KOAc, 0.1% BSA, 25 mM Mn(OAc)2, 0.1%13-ME and 50 mM pNPP. Immediately after mixing proteins and substrates, reactions were monitored for hydrolysis of pNPP at A405 at ˜2 minutes intervals using a Wallac plate reader. […]"}, "[2]": {"test_system": "aba2-1 mutant seeds", "assay": "Germination of aba2-1 background seeds on paclobutrazol or NaCl", "format": "in vivo, Arabidopsis", "conditions": "35S-driven transgene, germination 72 hours", "source_text": "As a further test of the ability of PYL2^CA3 to activate ABA signaling in vivo, we examined the ability of this allele to revert phenotypes caused by ABA deficiency, reasoning that effective activation of the ABA pathway should suppress phenotypes observed in the aba2 mutant. […] To test this, we examined the germination of various genotypes on paclobutrazol, an inhibitor of GA biosynthesis. Wild-type seed germination is blocked by paclobutrazol treatment but aba2 mutants germinate due to defects in ABA-induced seed dormancy. We also examined the germination of various genotypes in the presence of NaCl, which, like paclobutrazole, inhibits seed germination in an ABA- and aba2-dependent manner (Gonzalez-Guzman M. et al. (2002) Plant Cell 14(8):1833-1846; Leon-Kloosterziel K M, et al. (1996) Plant J 10 (4):655-661). […] Thus, expression of PYL2^CA3 in developing seeds is sufficient to activate an ABA-dependent physiological process despite the depleted ABA levels present in the aba2 background.\nGermination tests on paclobutrazol (Wako Chemicals, Japan) and NaCl were conducted as following. Columbia, aba2-1, aba2-1; 35S::GFP-PYL2 and aba2-1; 35S::GFP-PYL2″^3 seeds were surface sterilized and plated onto ⅓ MS agar media containing 25, 50 or 100 μM paclobutrazol or 0, 50, 200, 250 mM NaCl. Control wells contained ⅓ MS agar and 0.1% DMSO, the carrier solvent for paclobutrazol. The seeds were stratified for four days in darkness and then transferred to continuous illumination at room temperature (23° C.). Germination was assayed after 72 hours; seeds showing radicals at least ½ seed length or greater were scored as positive. Each experiment was performed in triplicate; experiments were performed on seeds that were ˜6-months post-harvest."}}, "data": [{"molecule": "PYL2^CA3: PYL2 mutant (H65P, V87F, F165V); expressed in plants as 35S-driven GFP fusion (protein) HHHHHHMSSSPAVKGLTDEEQKTLEPVIKTYHQFEPDPTTCTSLITQRIHAPASVVWPLIRRFDNPERYKPFVKRCRLISGDGDVGSVREVTFISGLPASTSTERLEFVDDDHRVLSFRVVGGEHRLKNYKSVTSVNEFLNQDSGKVYTVVLESYTVDIPEGNTEEDTKMVVDTVVKLNLQKLGVAATSAPMHDDE", "values": [{"measurement": "basal receptor activity (inhibition of HAB1 phosphatase activity in the absence of ABA)", "setting": "[1]", "result": "highly activated in the absence of ABA"}, {"measurement": "NaCl resistance of aba2 mutant seed germination", "setting": "[2]", "result": "suppressed"}, {"measurement": "paclobutrazol resistance of aba2 mutant seed germination", "setting": "[2]", "result": "suppressed"}]}]}
